# Measured values taken from US20250019449A1 (Memorial Sloan Kettering, published 2025).
# Substitutions are numbered along the chain they refer to.
# B1: ADI-35281 (antibody, V domains shown)
# VH: EVKLEQSGGGLVQPKGSLKLSCVASGFTFNAYAMNWVRQAPGQGLEWVARIRSKSNNYATYYAASVKDRFTISRDDSQSILYLQMNNLKTEDTAMYYCVRQSYGNSNYAMDYWGQGTTVTVSS
# VL: DIQLTQSPPSVPVTPGESVSISCRSSKSLLHSNGNTYLYWFLQRPGQSPQLLIYRKSNLASGVPDRFSGSGSGTAFTLRISRVEAEDVGVYYCMQHLEYPFTFGGGTKLEIK
# notes: Produced as IgG
# B2: ADI-40327 (antibody, V domains shown)
# VH: QVQLQESGPGLVKPSETLSLTCAVSGYSISSGYYWGWIRQPPGKGLEWIGSIYHSGNTYYRPSLKSRVTISVDTSKNQFSLKLSSVTAADTAVYYCARGKGGSWTAFGPWGQGTLVTVSS
# VL: DIQMTQSPSSLSASVGDRVTITCRASQSISSFLNWYQQKPGKAPKLLISAASSLQSGVPSRFSGSGSGTDFTLTISSLQPEDFATYYCQQGHSTPPTFGGGTKVEIK
# B3: ADI-40352 (antibody, V domains shown)
# VH: QLQLQESGPGLVKPSETLSLTCTVSGGSISSSSYAWGWIRQPPGKRLEWIGSIYYTGSTYYNPSLKSRVTISVDTSKNQFSLKLSSVTAADTAVYYCLRGHRRDYIAFDIWGQGTMVTVSS
# VL: DIQMTQSPSSLSASVGDRVTITCRASQSISSYLNWYQQKPGKAPKLLIYAASSLQSGVPSRFSGSGSGTDFTLTISSLQPEDFATYYCQQSHNLPTFGGGTKVEIK
# B4: ADI-40360 (antibody, V domains shown)
# VH: B3 VH with L98V
# VL: B3 VL
# B5: ADI-40306 (antibody, V domains shown)
# VH: QVQLVESGGGVVQPGRSLRLSCAASGFTFSSYGMHWVRQAPGKGLEWVAVISYDGSNKYYAFSVKGRFTISRDNSKNTLYLQMNSLRVEDTAVYYCARVRRIAGRAGYGMDVWGQGTTVTVSS
# VL: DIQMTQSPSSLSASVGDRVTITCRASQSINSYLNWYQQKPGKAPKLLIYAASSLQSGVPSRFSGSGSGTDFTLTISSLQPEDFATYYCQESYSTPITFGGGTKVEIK
# B6: ADI-46663 (antibody, V domains shown)
# VH: EVQLVESGGGLVQPGGSLRLSCAASGFTFNAYAMNWVRQAPGKGLEWVARIRSKSNNYATYYADSVKDRFTISRDDSKNSLYLQMNSLKTEDTAVYYCVRQSYGNSNYAMDYWGQGTTVTVSS
# VL: DIVMTQSPLSLPVTPGEPASISCRSSKSLLHSNGNTYLYWYLQKPGQSPQLLIYRMSNLASGVPDRFSGSGSGTDFTLKISRVEAEDVGVYYCMQHLEYPFTFGGGTKVEIK
# Molecular target: T1, human CCR8 (human, UniProt P51685 1-355)
# T1 construct: whole, on cells; also called hCCR8
# T1 sequence (P51685 whole entry): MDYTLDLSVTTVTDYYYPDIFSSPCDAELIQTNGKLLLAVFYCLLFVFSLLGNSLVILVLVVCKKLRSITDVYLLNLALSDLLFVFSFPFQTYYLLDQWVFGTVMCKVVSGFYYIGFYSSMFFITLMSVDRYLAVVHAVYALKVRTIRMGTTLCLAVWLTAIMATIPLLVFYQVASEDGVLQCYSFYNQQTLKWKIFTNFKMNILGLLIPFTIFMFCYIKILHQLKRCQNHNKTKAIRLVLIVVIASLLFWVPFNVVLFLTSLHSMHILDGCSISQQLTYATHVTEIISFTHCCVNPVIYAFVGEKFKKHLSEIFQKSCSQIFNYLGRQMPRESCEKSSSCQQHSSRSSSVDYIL
# Test: flow cytometry on mammalian cells expressing human CCR8
row,Binder,MFI Fold over Background
1,B1,336 fold over background

# Molecular target: T1, human CCR8
# Test: cell-based or functional assay
row,Binder,EC50 of hCCR8-specific internalization
1,B2,14.3 µg/mL
2,B3,5.7 µg/mL
3,B4,2.8 µg/mL

# Molecular target: T1, human CCR8
# Test: cell-based or functional assay
# Remark: another data set of the same source
Binder,IC50 antagonism of EC80 Human CCL1 Gα15/16 Biosensor,IC50 antagonism of EC80 Human CCL1 Gαz Biosensor
B5,29.8 nM,18.9 nM
B6,1.26 nM,1.79 nM
B2,4.61 nM,5.46 nM
B3,0.439 nM,2.39 nM
B4,1.78 nM,1.14 nM
